IntAct's records for PubMed 23622245

B1: Proteasome inhibitor PI31 subunit (Drosophila melanogaster (Fruit fly)), Q9V637 (parent)
chain: MESGSTAKTGDFFYGWDLLYKTVKADVSKKSDLLIALVHFLLTKHYNFRCVGVGDDKTLPEEEGSELLPDSWNDDDTKYSLRYVHDKMLYLLLGHITEGSLLINLLDINTKKVSNICVEPETLVPEVKGGITTIMPSASEIVERYRRELLDPVFTGNSREVTTQTTNSPRPIGSDPDPLRIGEPRRGGSFIPSAFEPRPFGFPDVGRGDLDPLGRGGHGNLFSFPSRPNMGPGPVPRFDPFNPLNPNRPGQGGINPDHMRPPDWNPDYYM
partner: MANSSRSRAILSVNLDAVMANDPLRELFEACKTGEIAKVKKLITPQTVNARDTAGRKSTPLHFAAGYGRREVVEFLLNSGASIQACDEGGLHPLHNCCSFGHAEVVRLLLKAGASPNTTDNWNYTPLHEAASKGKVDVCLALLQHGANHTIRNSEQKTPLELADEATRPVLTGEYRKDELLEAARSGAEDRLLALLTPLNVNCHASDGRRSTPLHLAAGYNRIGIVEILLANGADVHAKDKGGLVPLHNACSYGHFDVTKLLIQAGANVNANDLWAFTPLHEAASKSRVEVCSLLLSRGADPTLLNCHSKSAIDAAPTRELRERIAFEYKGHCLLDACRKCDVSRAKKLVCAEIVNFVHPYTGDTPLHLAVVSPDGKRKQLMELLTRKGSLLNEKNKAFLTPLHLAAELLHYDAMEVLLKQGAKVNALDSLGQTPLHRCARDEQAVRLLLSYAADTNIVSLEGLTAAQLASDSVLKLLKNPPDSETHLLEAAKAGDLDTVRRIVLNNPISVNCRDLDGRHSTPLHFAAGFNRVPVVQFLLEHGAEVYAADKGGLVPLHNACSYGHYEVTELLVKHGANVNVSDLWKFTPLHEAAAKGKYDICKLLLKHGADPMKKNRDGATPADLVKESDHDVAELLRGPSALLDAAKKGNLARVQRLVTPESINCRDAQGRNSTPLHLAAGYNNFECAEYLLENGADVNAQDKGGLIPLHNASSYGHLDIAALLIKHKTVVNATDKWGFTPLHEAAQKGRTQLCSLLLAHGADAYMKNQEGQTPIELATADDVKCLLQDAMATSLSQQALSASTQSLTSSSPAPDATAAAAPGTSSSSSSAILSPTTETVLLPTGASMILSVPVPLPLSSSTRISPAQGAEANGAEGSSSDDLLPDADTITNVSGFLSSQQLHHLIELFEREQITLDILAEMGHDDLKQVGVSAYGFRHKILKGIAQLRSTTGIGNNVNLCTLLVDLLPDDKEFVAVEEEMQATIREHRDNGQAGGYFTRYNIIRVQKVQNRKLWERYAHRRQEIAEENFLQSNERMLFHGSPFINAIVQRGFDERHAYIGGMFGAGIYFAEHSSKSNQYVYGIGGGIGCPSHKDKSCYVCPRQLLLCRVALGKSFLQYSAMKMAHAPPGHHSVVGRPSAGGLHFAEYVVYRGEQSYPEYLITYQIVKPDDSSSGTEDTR
B2: 26S proteasome non-ATPase regulatory subunit 9 (Drosophila melanogaster (Fruit fly)), Q9VFS8 (parent)
chain: MAAGTTTKERLERLINAKKQLEAQINRNGQILAANDNVGMSGPLVDAEGFPRNDIDVYQVRLARQTIICLQNDHKELMNQIQTLLNQYHSEIATTDPELVNRASALDLDSDRSPGGANITDLAPARAIVVVNLVSPDSPAERAGLCAGDAILRFGSINSGNFKGDLAQIGELVRNMQSQNVQLKVKRGEQQLDLILVPKTWSGRGLLGCNIVLPPEAMDH
partner: B1 chain
B3: Proteasome inhibitor PI31 subunit (Drosophila melanogaster (Fruit fly)), Q9V637 (parent)
chain: B1 chain
partner: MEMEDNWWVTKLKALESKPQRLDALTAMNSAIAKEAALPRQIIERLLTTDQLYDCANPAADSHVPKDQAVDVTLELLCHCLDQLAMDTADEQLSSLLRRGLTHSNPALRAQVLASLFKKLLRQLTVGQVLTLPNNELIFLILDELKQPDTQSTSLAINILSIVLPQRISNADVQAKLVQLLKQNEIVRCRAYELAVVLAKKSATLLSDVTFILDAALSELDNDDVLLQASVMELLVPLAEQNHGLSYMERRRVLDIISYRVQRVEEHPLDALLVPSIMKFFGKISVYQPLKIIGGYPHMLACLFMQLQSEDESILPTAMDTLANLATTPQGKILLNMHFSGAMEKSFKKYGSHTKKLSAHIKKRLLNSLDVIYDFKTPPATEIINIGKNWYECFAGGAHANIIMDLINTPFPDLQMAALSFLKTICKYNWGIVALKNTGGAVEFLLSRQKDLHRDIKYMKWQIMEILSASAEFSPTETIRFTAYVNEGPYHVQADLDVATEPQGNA
B4: 26S proteasome non-ATPase regulatory subunit 5 (Drosophila melanogaster (Fruit fly)), Q9VYG1 (parent)
chain: B3 partner
partner: B1 chain
B5: Proteasome inhibitor PI31 subunit (Drosophila melanogaster (Fruit fly)), Q9V637 (parent)
chain: B1 chain
partner: B2 chain

Variants of: B1
Details: with tnks_drome Tnks

| effect of a mutation on the interaction | Variant |
| --- | --- |
| disrupting interaction strength | MESGSTAKTGDFFYGWDLLYKTVKADVSKKSDLLIALVHFLLTKHYNFRCVGVGDDKTLPEEEGSELLPDSWNDDDTKYSLRYVHDKMLYLLLGHITEGSLLINLLDINTKKVSNICVEPETLVPEVKGGITTIMPSASEIVERYRRELLDPVFTGNSREVTTQTTNSPRPIGSDPDPLRIGEPRRGGSFIPSAFEPRPFGFPDVGRGDLDPLGRGGHGNLFSFPSRPNMGPGPVPRFDPANPLNPNRPGQGGINPDHMRPPDWNPDYYM [F241A] |
| disrupting interaction strength | MESGSTAKTGDFFYGWDLLYKTVKADVSKKSDLLIALVHFLLTKHYNFACVGVADDKTLPEEEGSELLPDSWNDDDTKYSLRYVHDKMLYLLLGHITEGSLLINLLDINTKKVSNICVEPETLVPEVKGGITTIMPSASEIVERYRRELLDPVFTGNSREVTTQTTNSPRPIGSDPDPLRIGEPRRGGSFIPSAFEPRPFGFPDVGRGDLDPLGRGGHGNLFSFPSRPNMGPGPVPRFDPFNPLNPNRPGQGGINPDHMRPPDWNPDYYM [R49A;G54A] |
| disrupting interaction strength | MESGSTAKTGDFFYGWDLLYKTVKADVSKKSDLLIALVHFLLTKHYNFRCVGVGDDKTLPEEEGSELLPDSWNDDDTKYSLRYVHDKMLYLLLGHITEGSLLINLLDINTKKVSNICVEPETLVPEVKGGITTIMPSASEIVERYRRELLDPVFTGNSREVTTQTTNSPRPIGSDPDPLRIGEPRRGGSFIPSAFEPRPFGFPDVGRGDADPLGRGGHGNLFSFPSRPNMGPGPVPRFDPFNPLNPNRPGQGGINPDHMRPPDWNPDYYM [L210A] |

Variants of: B2
Details: with psmf1_drome PI31, Q9V637

| effect of a mutation on the interaction | Variant |
| --- | --- |
| disrupting interaction strength | MAAGTTTKERLERLINAKKQLEAQINRNGQILAANDNVGMSGPLVDAEGFPRNDIDVYQVRLARQTIICLQNDHKELMNQIQTLLNQYHSEIATTDPELVNRASALDLDSDRSPGGANITDLAPARAIVVVNLVSPDSPAERAGLCAGDAILRFGSINSGNFKGDLAQIGELVRNMQSQNVQLKVKAGEQQLDLILVPKTWSGRGLLGCNIVLPPEAMDH [R187A] |
| disrupting interaction strength | MAAGTTTKARLERLINAKKQLEAQINRNGQILAANDNVGMSGPLVDAEGFPRNDIDVYQVRLARQTIICLQNDHKELMNQIQTLLNQYHSEIATTDPELVNRASALDLDSDRSPGGANITDLAPARAIVVVNLVSPDSPAERAGLCAGDAILRFGSINSGNFKGDLAQIGELVRNMQSQNVQLKVKRGEQQLDLILVPKTWSGRGLLGCNIVLPPEAMDH [E9A] |

Variants of: B3
Details: with psmd5_drome psmd5, Q9VYG1

| effect of a mutation on the interaction | Variant |
| --- | --- |
| disrupting interaction strength | MESGSTAKTGDFFYGWDLLYKTVKADVSKKSDLLIALVHFLLTKHYNFRCVGVGDDKTLPEEEGSELLPDSWNDDDTKYSLRYVHDKMLYLLLGHITEGSLLINLLDINTKKVSNICVEPETLVPEVKGGITTIMPSASEIVERYRRELLDPVFTGNSREVTTQTTNSPRPIGSDPDPLRIGEPRRGGSFIPSAFEPRPFGFPDVGRGDADPLGRGGHGNLFSFPSRPNMGPGPVPRFDPFNPLNPNRPGQGGINPDHMRPPDWNPDYYM [L210A] |
| disrupting interaction strength | MESGSTAKTGDFFYGWDLLYKTVKADVSKKSDLLIALVHFLLTKHYNFRCVGVGDDKTLPEEEGSELLPDSWNDDDTKYSLRYVHDKMLYLLLGHITEGSLLINLLDINTKKVSNICVEPETLVPEVKGGITTIMPSASEIVERYRRELLDPVFTGNSREVTTQTTNSPRPIGSDPDPLRIGEPRRGGSFIPSAFEPRPFGFPDVGRGDLDPLGRGGHGNLFSFPSRPNMGPGPVPRFDPANPLNPNRPGQGGINPDHMRPPDWNPDYYM [F241A] |

Variants of: B4
Details: with psmf1_drome PI31, Q9V637

| effect of a mutation on the interaction | Variant |
| --- | --- |
| disrupting interaction strength | MEMEDNWWVTKLKALESKPQRLDALTAMNSAIAKEAALPRQIIARLLTTDQLYDCANPAADSHVPKDQAVDVTLELLCHCLDQLAMDTADEQLSSLLRRGLTHSNPALRAQVLASLFKKLLRQLTVGQVLTLPNNELIFLILDELKQPDTQSTSLAINILSIVLPQRISNADVQAKLVQLLKQNEIVRCRAYELAVVLAKKSATLLSDVTFILDAALSELDNDDVLLQASVMELLVPLAEQNHGLSYMERRRVLDIISYRVQRVEEHPLDALLVPSIMKFFGKISVYQPLKIIGGYPHMLACLFMQLQSEDESILPTAMDTLANLATTPQGKILLNMHFSGAMEKSFKKYGSHTKKLSAHIKKRLLNSLDVIYDFKTPPATEIINIGKNWYECFAGGAHANIIMDLINTPFPDLQMAALSFLKTICKYNWGIVALKNTGGAVEFLLSRQKDLHRDIKYMKWQIMEILSASAEFSPTETIRFTAYVNEGPYHVQADLDVATEPQGNA [E44A] |
| disrupting interaction strength | MEMEDNWWVTKLKALESKPQRLDALTAMNSAIAKEAALPRQIIERLLTTDQLYDCANPAADSHVPKDQAVDVTLELLCHCLDQLAMDTADEQLSSLLRRGLTHSNPALRAQVLASLFKKLLRQLTVGQVLTLPNNELIFLILDELKQPDTQSTSLAINILSIVLPQRISNADVQAKLVQLLKQNEIVRCRAYELAVVLAKKSATLLSDVTFILDAALSELDNDDVLLQASVMELLVPLAEQNHGLSYMERRRVLDIISYRVQAVEEHPLDALLVPSIMKFFGKISVYQPLKIIGGYPHMLACLFMQLQSEDESILPTAMDTLANLATTPQGKILLNMHFSGAMEKSFKKYGSHTKKLSAHIKKRLLNSLDVIYDFKTPPATEIINIGKNWYECFAGGAHANIIMDLINTPFPDLQMAALSFLKTICKYNWGIVALKNTGGAVEFLLSRQKDLHRDIKYMKWQIMEILSASAEFSPTETIRFTAYVNEGPYHVQADLDVATEPQGNA [R263A] |

Variants of: B5
Details: with psmd9_drome psmd9, Q9VFS8

| effect of a mutation on the interaction | Variant |
| --- | --- |
| disrupting interaction strength | MESGSTAKTGDFFYGWDLLYKTVKADVSKKSDLLIALVHFLLTKHYNFRCVGVGDDKTLPEEEGSELLPDSWNDDDTKYSLRYVHDKMLYLLLGHITEGSLLINLLDINTKKVSNICVEPETLVPEVKGGITTIMPSASEIVERYRRELLDPVFTGNSREVTTQTTNSPRPIGSDPDPLRIGEPRRGGSFIPSAFEPRPFGFPDVGRGDADPLGRGGHGNLFSFPSRPNMGPGPVPRFDPFNPLNPNRPGQGGINPDHMRPPDWNPDYYM [L210A] |
| disrupting interaction strength | MESGSTAKTGDFFYGWDLLYKTVKADVSKKSDLLIALVHFLLTKHYNFRCVGVGDDKTLPEEEGSELLPDSWNDDDTKYSLRYVHDKMLYLLLGHITEGSLLINLLDINTKKVSNICVEPETLVPEVKGGITTIMPSASEIVERYRRELLDPVFTGNSREVTTQTTNSPRPIGSDPDPLRIGEPRRGGSFIPSAFEPRPFGFPDVGRGDLDPLGRGGHGNLFSFPSRPNMGPGPVPRFDPANPLNPNRPGQGGINPDHMRPPDWNPDYYM [F241A] |
